{"source": "patent US20170349647A1", "about": "(PANASONIC INTELLECTUAL PROPERTY MANAGEMENT, published 2017)", "biological_target": "recombinant nucleoprotein (NP) protein derived from influenza virus H1N1 to which a Flag tag was fus (influenza virus H1N1)", "sequence (P03466 whole entry)": "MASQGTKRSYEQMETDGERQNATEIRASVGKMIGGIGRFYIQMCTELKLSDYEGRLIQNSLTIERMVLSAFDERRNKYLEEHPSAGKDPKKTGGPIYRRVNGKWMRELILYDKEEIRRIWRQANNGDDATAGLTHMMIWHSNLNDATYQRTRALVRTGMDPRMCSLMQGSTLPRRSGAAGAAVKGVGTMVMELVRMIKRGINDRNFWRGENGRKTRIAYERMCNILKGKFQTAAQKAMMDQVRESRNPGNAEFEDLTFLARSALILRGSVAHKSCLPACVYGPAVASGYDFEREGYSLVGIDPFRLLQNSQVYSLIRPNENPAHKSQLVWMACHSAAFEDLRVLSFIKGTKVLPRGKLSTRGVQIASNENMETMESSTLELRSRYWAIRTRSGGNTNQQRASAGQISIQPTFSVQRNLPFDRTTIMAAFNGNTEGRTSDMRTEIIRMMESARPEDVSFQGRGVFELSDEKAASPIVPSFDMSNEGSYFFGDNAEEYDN", "data": [{"binder": "VHH antibody consisting of the amino acid sequence represented by SEQ ID NO: 08 (VHH) VHH: QVQLVESGGGLVQAGGSLRLSCAASRTIFNPNVMGWYRQAPGKQRELVADISLSGSTNYADSVKGRFTISRDNAKNTMYLQMNSLKPEDTAVYYCNTNAISGAPGRYWGQGTQVTVSS", "values": [{"measurement": "Kd", "result": 0.236, "unit": "nM"}]}]}
